Experimental data from US20250339569A1 (3B PHARMACEUTICALS, published 2025).
Each block holds one binder with its values, some of them ahead of it. Starred links: 1 amine or outer side, 2 acyl side, 3 side chain; linkers in the order of their positions; H or OH if unused. Positions of bridges follow the written chain, without caps; N, C: chain ends. Non-standard residues stand in square brackets, D forms with d. Groups on a side chain read outwards from the residue. Primed or numbered codes have the meaning given here. *: point of attachment. Af3(DImAc) = 3-aminophenylalanine acylated on the ring amine with 2-{2,5-dioxo-octahydroimidazo[4,5-d]imidazolidin-1-yl}acetic acid, O=C(CN1C(=O)NC2NC(=O)NC21)Nc1cccc(C[C@H](N[*:1])C(=O)[*:2])c1; APAc″ = 2-(4-(amino)piperidin-1-yl)acetic acid, NC1CCN(CC(=O)*)CC1; DOTA = O=C(O)CN1CCN(CC(=O)O)CCN(CC(=O)*)CCN(CC(=O)O)CC1; Phe(4-CF3) = N[C@@H](Cc1ccc(C(F)(F)F)cc1)C(=O)O; Phe(4-I) = N[C@@H](Cc1ccc(I)cc1)C(=O)O; mXylylene = c1cc(C[*:1])cc(C[*:2])c1; Bta = N[C@@H](Cc1csc2ccccc12)C(=O)O; Cha = N[C@@H](CC1CCCCC1)C(=O)O; Propanoyl(3-OH) = O=C(CCO)*; 4Amb = NCc1ccc(C(=O)O)cc1; 4Amc = not defined here; APAc = not defined here; Ac5c = NC1(C(=O)O)CCCC1; Inp′ = not defined here; Apr = not defined here; Dap = NC[C@H](N)C(=O)O; Sar = CNCC(=O)O

Tests used:
[1] = target: T1, Fc-fusion protein of human carbonic anhydrase IX (human, UniProt Q16790 38-414); test: SPR, captured hCAIX-Fc; t1/2 category C: 2.1-5.0 min
Method: Stock solutions of test compounds were prepared by dissolving each compound in DMSO. DMSO stock solution were diluted 1:1000 in Running Buffer without DMSO. […] SPR binding analyses were performed in Single Cycle Kinetic (SCK) mode at 25° C.
For each test compound, SPR raw data in the form of resonance units (RU) were plotted as sensorgrams using the Biacore™ T200 control software. The signal from the blank sensorgram was subtracted from that of the test compound sensorgram (blank corrected). The blank corrected sensorgram was corrected for baseline drift by subtracting the sensorgram of a SCK run without the test compound (running buffer only). […] Raw data and fit results were imported as text files in IDBS. The pKD value (negative decadic logarithm of dissociation constant) was calculated in the IDBS excel template.

[2] = target: T1, Fc-fusion protein of human carbonic …; test: SPR, captured hCAIX-Fc; pKD category A: >8.0
[3] = target: human carbonic anhydrase 9 (CAIX) (human, UniProt Q16790 38-459); test: FACS competition on HT-29 cells, competitor tracer 3BP-2776; category B = pIC50 7.1-8.0
Method: CAIX-expressing human HT-29 colorectal cancer cells (DSMZ, RRID: CVCL_0320) were cultured in McCoys's 5A modified medium (Biochrom, #F1015) including 10% fetal calf serum (FCS), 2 mM L-glutamine, 100 U/ml penicillin and 100 μg/mL streptomycin. Cells were detached with Accutase (Biolegend, #423201) and washed in FACS buffer (PBS including 1% FCS). Cells were diluted in FACS buffer to a final concentration of 500.000 cells per ml. 200 μL of the cell suspension were transferred to a u-shaped non-binding 96-well plate (Greiner) and cells were washed in ice-cold FACS buffer.
When biotinylated compounds were used an additional incubation step with 1 μg/mL APC-Streptavidin (Miltenyi; #130-106-791) in 50 μL FACS buffer for 30 minutes on ice was performed.
Cells were washed twice with ice-cold FACS buffer and analyzed in an Attune NxT flow cytometer (Thermo Fisher). Median fluorescence intensities (MFI) of the APC/Cy5-channel were calculated by Attune NxT software.

Binder: {DOTA-APAc″}-VYCE[dP]D[Phe(4-CF3)]LTWSC-NH2 (linker 3-12 via mXylylene; not fully specified) [3BP-4139]
t1/2 (half-life of the complex, SPR) [1]: 2.1 to 5 min
pKD [2]: > 8 pkd

B3: 3BP-4257 (peptide)
peptide: {DOTA}-SDCE[dP]DWLTW[Dap]C-NH2
modifications: lactam 11-2; linker 3-12 via mXylylene
SMILES: CC(C)C[C@@H]1NC(=O)[C@H](Cc2c[nH]c3ccccc23)NC(=O)[C@H](CC(=O)O)NC(=O)[C@H]2CCCN2C(=O)[C@H](CCC(=O)O)NC(=O)[C@@H]2CSCc3cccc(c3)CSC[C@@H](C(N)=O)NC(=O)[C@H](CNC(=O)C[C@H](NC(=O)[C@H](CO)NC(=O)CN3CCN(CC(=O)O)CCN(CC(=O)O)CCN(CC(=O)O)CC3)C(=O)N2)NC(=O)[C@H](Cc2c[nH]c3ccccc23)NC(=O)[C@H]([C@@H](C)O)NC1=O
t1/2 (half-life of the complex, SPR) [1]: 2.1 to 5 min
pKD [2]: > 8 pkd

Binder: {DOTA-APAc″}-DCE[dP]DWLTW[Dap]C-NH2 (lactam 10-1; linker 2-11 via mXylylene) [3BP-4254]
t1/2 (half-life of the complex, SPR) [1]: 2.1 to 5 min
pKD [2]: > 8 pkd

Binder: {DOTA-APAc}-VYCE[dP]DW[Ac5c]TWSC-NH2 (linker 3-12 via mXylylene; reading uncertain) [3BP-3587]
t1/2 (half-life of the complex, SPR) [1]: 2.1 to 5 min
pKD [2]: > 8 pkd

B4: 3BP-3311 (peptide)
peptide: Ac-VYCE[Sar]D[Bta]LTWQC-NH2
modifications: linker 3-12 via mXylylene
SMILES: CC(=O)N[C@H](C(=O)N[C@@H](Cc1ccc(O)cc1)C(=O)N[C@H]1CSCc2cccc(c2)CSC[C@@H](C(N)=O)NC(=O)[C@H](CCC(N)=O)NC(=O)[C@H](Cc2c[nH]c3ccccc23)NC(=O)[C@H]([C@@H](C)O)NC(=O)[C@H](CC(C)C)NC(=O)[C@H](Cc2csc3ccccc23)NC(=O)[C@H](CC(=O)O)NC(=O)CN(C)C(=O)[C@H](CCC(=O)O)NC1=O)C(C)C
t1/2 (half-life of the complex, SPR) [1]: 2.1 to 5 min
pKD [2]: > 8 pkd

B5: 3BP-3934 (peptide)
peptide: {DOTA}-YCE[dP]KWLEWSC-NH2
modifications: linker 2-11 via mXylylene; lactam 5-8
SMILES: CC(C)C[C@@H]1NC(=O)[C@H](Cc2c[nH]c3ccccc23)NC(=O)[C@@H]2CCCCNC(=O)CC[C@H](NC1=O)C(=O)N[C@@H](Cc1c[nH]c3ccccc13)C(=O)N[C@@H](CO)C(=O)N[C@H](C(N)=O)CSCc1cccc(c1)CSC[C@H](NC(=O)[C@H](Cc1ccc(O)cc1)NC(=O)CN1CCN(CC(=O)O)CCN(CC(=O)O)CCN(CC(=O)O)CC1)C(=O)N[C@@H](CCC(=O)O)C(=O)N1CCC[C@@H]1C(=O)N2
t1/2 (half-life of the complex, SPR) [1]: 2.1 to 5 min
pKD [2]: > 8 pkd

Binder: {Propanoyl(3-OH)}-YCE[dP]DWLTWE([Apr-DOTA])C-NH2 (linker 2-11 via mXylylene; reading uncertain) [3BP-3842]
t1/2 (half-life of the complex, SPR) [1]: 2.1 to 5 min
pKD [2]: > 8 pkd

Binder: {DOTA-Gab}-DCE[dP]DWLTW[Dap]C-NH2 (lactam 1-10; linker 2-11 via mXylylene) [3BP-4263]
t1/2 (half-life of the complex, SPR) [1]: 2.1 to 5 min
pKD [2]: > 8 pkd

Binder: {DOTA-4Amc}-DCE[dP]DWLTW[Dap]C-NH2 (lactam 10-1; linker 2-11 via mXylylene; reading uncertain) [3BP-4258]
t1/2 (half-life of the complex, SPR) [1]: 2.1 to 5 min
pKD [2]: > 8 pkd

B6: 3BP-3888 (peptide)
peptide: Ac-VYCK[dP]DWLEWSC-NH2
modifications: linker 3-12 via mXylylene; lactam 4-9
SMILES: CC(=O)N[C@H](C(=O)N[C@@H](Cc1ccc(O)cc1)C(=O)N[C@H]1CSCc2cccc(c2)CSC[C@@H](C(N)=O)NC(=O)[C@H](CO)NC(=O)[C@H](Cc2c[nH]c3ccccc23)NC(=O)[C@@H]2CCC(=O)NCCCC[C@H](NC1=O)C(=O)N1CCC[C@@H]1C(=O)N[C@@H](CC(=O)O)C(=O)N[C@@H](Cc1c[nH]c3ccccc13)C(=O)N[C@@H](CC(C)C)C(=O)N2)C(C)C
pIC50 [3]: 7.1 to 8 pic50

B7: 3BP-3901 (peptide)
peptide: Ac-VYCE[dP]EWLKWSC-NH2
modifications: linker 3-12 via mXylylene; lactam 6-9
SMILES: CC(=O)N[C@H](C(=O)N[C@@H](Cc1ccc(O)cc1)C(=O)N[C@H]1CSCc2cccc(c2)CSC[C@@H](C(N)=O)NC(=O)[C@H](CO)NC(=O)[C@H](Cc2c[nH]c3ccccc23)NC(=O)[C@@H]2CCCCNC(=O)CC[C@H](NC(=O)[C@H]3CCCN3C(=O)[C@H](CCC(=O)O)NC1=O)C(=O)N[C@@H](Cc1c[nH]c3ccccc13)C(=O)N[C@@H](CC(C)C)C(=O)N2)C(C)C
pIC50 [3]: 7.1 to 8 pic50

Binder: {DOTA-APAc″}-V[Dap]CE[dP]DWLTWDC-NH2 (lactam 2-11; linker 3-12 via mXylylene) [3BP-4176]
t1/2 (half-life of the complex, SPR) [1]: 2.1 to 5 min
pKD [2]: > 8 pkd

More lines, now with the values ahead:

t1/2 (half-life of the complex, SPR) [1]: 2.1 to 5 min
pKD [2]: > 8 pkd
Binder: {DOTA}-YCE[dP]DWLTWSC-NH2 (linker 2-11 via mXylylene; also: ['indium complexed by DOTA']) [3BP-3906]

t1/2 (half-life of the complex, SPR) [1]: 2.1 to 5 min
pKD [2]: > 8 pkd
B1: 3BP-3313 (peptide)
peptide: Ac-VYCE[Sar]DWLTWAC-NH2
modifications: linker 3-12 via mXylylene
SMILES: CC(=O)N[C@H](C(=O)N[C@@H](Cc1ccc(O)cc1)C(=O)N[C@H]1CSCc2cccc(c2)CSC[C@@H](C(N)=O)NC(=O)[C@H](C)NC(=O)[C@H](Cc2c[nH]c3ccccc23)NC(=O)[C@H]([C@@H](C)O)NC(=O)[C@H](CC(C)C)NC(=O)[C@H](Cc2c[nH]c3ccccc23)NC(=O)[C@H](CC(=O)O)NC(=O)CN(C)C(=O)[C@H](CCC(=O)O)NC1=O)C(C)C

t1/2 (half-life of the complex, SPR) [1]: 2.1 to 5 min
pKD [2]: > 8 pkd
Binder: {DOTA-APAc″}-VYCE[dP]D[Af3(DImAc)]LTWSC-NH2 (linker 3-12 via mXylylene) [3BP-4341]

t1/2 (half-life of the complex, SPR) [1]: 2.1 to 5 min
pKD [2]: > 8 pkd
B2: 3BP-4261 (peptide)
peptide: {DOTA-4Amb}-DCE[dP]DWLTW[Dap]C-NH2
modifications: lactam 10-1; linker 2-11 via mXylylene
SMILES: CC(C)C[C@@H]1NC(=O)[C@H](Cc2c[nH]c3ccccc23)NC(=O)[C@H](CC(=O)O)NC(=O)[C@H]2CCCN2C(=O)[C@H](CCC(=O)O)NC(=O)[C@@H]2CSCc3cccc(c3)CSC[C@@H](C(N)=O)NC(=O)[C@H](CNC(=O)C[C@H](NC(=O)c3ccc(CNC(=O)CN4CCN(CC(=O)O)CCN(CC(=O)O)CCN(CC(=O)O)CC4)cc3)C(=O)N2)NC(=O)[C@H](Cc2c[nH]c3ccccc23)NC(=O)[C@H]([C@@H](C)O)NC1=O

t1/2 (half-life of the complex, SPR) [1]: 2.1 to 5 min
pKD [2]: > 8 pkd
Binder: {DOTA-APAc″}-YCE[dP]DWLTWSC-NH2 (linker 2-11 via mXylylene) [3BP-3867]

t1/2 (half-life of the complex, SPR) [1]: 2.1 to 5 min
pKD [2]: > 8 pkd
Binder: {DOTA-APAc}-VYCE[dP]D[Phe(4-I)]LTWSC-NH2 (linker 3-12 via mXylylene; not fully specified; reading uncertain) [3BP-4134]

t1/2 (half-life of the complex, SPR) [1]: 2.1 to 5 min
pKD [2]: > 8 pkd
Binder: {DOTA-Inp′}-DCE[dP]DWLTW[Dap]C-NH2 (lactam 10-1; linker 2-11 via mXylylene) [3BP-4256]

t1/2 (half-life of the complex, SPR) [1]: 2.1 to 5 min
pKD [2]: > 8 pkd
Binder: {DOTA-APAc″}-VYCE[dP]DW[Cha]TWSC-NH2 (linker 3-12 via mXylylene) [3BP-4143]

pIC50 [3]: 7.1 to 8 pic50
Binder: {DOTA-APAc}-VYCE[dP]KWLEWSC-NH2 (linker 3-12 via mXylylene; lactam 6-9; reading uncertain) [3BP-3933]
